The record followed here is US20220396632A1 (VERSEAU THERAPEUTICS, published 2022).

The target of assay [1] is T1, Recombinant human PSGL-1(ECD)-hFc1 (R&D Systems, Cat. 3345-PS) (human, UniProt Q14242 42-305).
T1 construct: Bought; Gln42-Val295 counted on AAC50061; also called PSGL-1-Fc; PSGL-1-hFc1 chimera; not shown: human IgG1 Fc, Pro100-Lys330
T1 sequence: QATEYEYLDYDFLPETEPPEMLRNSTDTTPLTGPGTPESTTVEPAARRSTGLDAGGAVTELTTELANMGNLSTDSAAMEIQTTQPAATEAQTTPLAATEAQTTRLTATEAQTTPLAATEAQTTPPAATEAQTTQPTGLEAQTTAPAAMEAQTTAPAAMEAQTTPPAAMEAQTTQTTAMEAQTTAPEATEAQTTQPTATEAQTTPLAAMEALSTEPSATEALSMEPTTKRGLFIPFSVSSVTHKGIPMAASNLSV
The assay can be described thus: blocking ELISA vs VISTA-Fc, pH 6.0. A general note: In an ELISA, binding on a coated surface is turned into a signal by an enzyme label.

Assay [2] deals with T2, Human fibrinogen protein (ThermoFisher, RP-43142) (human, UniProt P02671 20-629; P02675 31-491; P02679 27-453, limits assumed, natural sulfotyrosines).
T2 construct: mature; Native dimer with 3 pairs of non-identical chains; also called gamma-fibrinogen; γ fibrinogen protein
T2 sequence (looked up) 1: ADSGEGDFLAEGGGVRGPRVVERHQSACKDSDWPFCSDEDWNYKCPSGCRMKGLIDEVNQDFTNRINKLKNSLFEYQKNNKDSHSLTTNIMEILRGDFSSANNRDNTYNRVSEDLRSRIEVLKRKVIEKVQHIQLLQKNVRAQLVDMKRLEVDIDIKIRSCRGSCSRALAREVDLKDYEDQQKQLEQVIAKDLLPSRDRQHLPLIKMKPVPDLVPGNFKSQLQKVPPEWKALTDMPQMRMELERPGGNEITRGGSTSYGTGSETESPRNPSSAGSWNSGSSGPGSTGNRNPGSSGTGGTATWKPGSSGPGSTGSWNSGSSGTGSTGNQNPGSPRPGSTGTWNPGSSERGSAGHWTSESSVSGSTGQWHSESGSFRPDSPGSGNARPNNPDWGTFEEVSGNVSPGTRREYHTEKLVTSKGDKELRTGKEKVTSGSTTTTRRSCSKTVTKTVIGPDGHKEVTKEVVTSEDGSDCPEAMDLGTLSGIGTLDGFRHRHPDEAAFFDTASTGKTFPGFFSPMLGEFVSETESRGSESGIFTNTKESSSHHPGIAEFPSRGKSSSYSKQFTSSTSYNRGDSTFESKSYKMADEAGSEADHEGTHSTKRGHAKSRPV
T2 sequence (looked up) 2: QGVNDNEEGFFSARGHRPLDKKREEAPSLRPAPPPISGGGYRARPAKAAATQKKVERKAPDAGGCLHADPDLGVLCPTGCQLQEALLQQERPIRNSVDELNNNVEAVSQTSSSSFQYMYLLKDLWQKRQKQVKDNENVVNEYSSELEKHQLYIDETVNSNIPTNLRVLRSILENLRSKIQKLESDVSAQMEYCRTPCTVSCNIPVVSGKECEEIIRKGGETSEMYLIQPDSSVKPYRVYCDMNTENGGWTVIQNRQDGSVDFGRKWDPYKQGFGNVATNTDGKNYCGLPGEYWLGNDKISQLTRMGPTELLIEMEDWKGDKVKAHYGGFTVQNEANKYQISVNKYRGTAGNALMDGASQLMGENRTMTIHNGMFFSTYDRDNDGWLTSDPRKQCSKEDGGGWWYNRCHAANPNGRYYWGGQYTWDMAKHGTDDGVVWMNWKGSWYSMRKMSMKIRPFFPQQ
T2 sequence (looked up) 3: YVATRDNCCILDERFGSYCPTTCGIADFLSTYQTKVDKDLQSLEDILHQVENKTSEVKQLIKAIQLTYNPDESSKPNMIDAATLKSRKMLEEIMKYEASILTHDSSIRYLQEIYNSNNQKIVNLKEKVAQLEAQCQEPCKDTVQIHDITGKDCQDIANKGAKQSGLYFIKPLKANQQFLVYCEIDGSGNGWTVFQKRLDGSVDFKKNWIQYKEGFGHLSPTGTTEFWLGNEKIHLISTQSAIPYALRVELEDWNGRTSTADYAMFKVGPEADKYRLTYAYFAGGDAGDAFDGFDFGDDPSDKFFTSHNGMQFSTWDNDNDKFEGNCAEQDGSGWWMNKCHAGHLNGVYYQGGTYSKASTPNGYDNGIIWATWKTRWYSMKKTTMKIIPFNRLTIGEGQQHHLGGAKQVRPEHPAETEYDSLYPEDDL
Briefly: ELISA, 50 nM mAb. How it is done: (§1) Recombinant PSGL-1-hFc1 chimera protein consisting of PSGL-1's extracellular domain (ECD) served as a positive control. […] Primary antibody was added (25 ul per well) in duplicate at 50 nM in assay buffer (blocking buffer containing 0.05% Tween®20) into test and control (just blocked) wells and the plate incubated for 45 min at 37° C.

Assay [3] has as its target T3, Human complement C4 protein (Millipore Sigma, Cat. 204886) (human, UniProt P0C0L4 20-675; P0C0L4 680-1446; P0C0L4 1454-1744, limits assumed, natural sulfotyrosines).
T3 construct: mature
The assay can be described thus: ELISA, 50 nM mAb. The protocol: as §1

Assay [4] concerns the target T1, Recombinant human PSGL-1(ECD)-hFc1 (R&D …). The assay can be described thus: ELISA, 50 nM mAb. How it is done: as §1
The target of assay [5] is T4, Cynomolgus PSGL-1(ECD)-hFc1 (cynomolgus macaque).
T4 construct: also called Cyno PSGL1-Fc; Cyno PSGL-1(ECD)-Fc
T4 sequence (chain, as listed by the source limits assumed): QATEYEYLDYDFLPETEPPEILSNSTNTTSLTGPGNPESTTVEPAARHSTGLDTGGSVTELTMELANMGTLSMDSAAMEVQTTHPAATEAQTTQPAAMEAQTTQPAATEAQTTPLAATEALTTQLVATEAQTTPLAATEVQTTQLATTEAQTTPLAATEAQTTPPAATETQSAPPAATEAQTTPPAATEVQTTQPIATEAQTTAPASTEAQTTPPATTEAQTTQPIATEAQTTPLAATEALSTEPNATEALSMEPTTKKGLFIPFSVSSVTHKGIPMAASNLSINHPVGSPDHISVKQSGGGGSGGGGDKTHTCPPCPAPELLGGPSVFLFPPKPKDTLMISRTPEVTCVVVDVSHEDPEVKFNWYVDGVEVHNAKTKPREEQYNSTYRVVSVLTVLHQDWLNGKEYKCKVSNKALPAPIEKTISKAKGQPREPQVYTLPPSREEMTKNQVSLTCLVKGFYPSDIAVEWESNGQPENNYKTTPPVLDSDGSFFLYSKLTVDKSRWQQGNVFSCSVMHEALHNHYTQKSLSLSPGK
Briefly: ELISA, 20 nM mAb on plate cyno PSGL-1(ECD)-Fc. An outline of the steps: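 Plates coated o/n 4° C., 3 ug/mL recombinant cyno PSGL-1(ECD), PBS pH 7.4. mAb 20 nM or 0.003-200 nM titration in blocking buffer + 0.05% tween 20, 45 min 37° C. HRP/TMB, A450; mean of duplicates minus background.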

T3 sequence (P0C0L4 20-675 limits assumed, form in doubt, chain 1 of 3): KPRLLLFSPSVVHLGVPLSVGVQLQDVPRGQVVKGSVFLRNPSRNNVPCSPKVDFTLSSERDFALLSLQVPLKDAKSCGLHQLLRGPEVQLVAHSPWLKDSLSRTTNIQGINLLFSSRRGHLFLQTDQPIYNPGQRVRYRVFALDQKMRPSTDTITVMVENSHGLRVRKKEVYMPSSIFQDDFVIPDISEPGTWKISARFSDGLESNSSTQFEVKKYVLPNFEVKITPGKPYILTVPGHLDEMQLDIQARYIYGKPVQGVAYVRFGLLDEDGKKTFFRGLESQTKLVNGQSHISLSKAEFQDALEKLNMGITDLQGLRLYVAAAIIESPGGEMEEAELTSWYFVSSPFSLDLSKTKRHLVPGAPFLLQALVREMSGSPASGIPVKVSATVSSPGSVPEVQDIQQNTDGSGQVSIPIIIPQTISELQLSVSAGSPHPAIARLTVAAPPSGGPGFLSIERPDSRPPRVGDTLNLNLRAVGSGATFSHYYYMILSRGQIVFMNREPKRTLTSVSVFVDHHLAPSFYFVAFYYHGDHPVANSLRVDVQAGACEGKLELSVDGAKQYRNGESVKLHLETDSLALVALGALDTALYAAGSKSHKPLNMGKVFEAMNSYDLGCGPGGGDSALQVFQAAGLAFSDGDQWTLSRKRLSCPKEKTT
T3 sequence (P0C0L4 680-1446 limits assumed, form in doubt, chain 2 of 3): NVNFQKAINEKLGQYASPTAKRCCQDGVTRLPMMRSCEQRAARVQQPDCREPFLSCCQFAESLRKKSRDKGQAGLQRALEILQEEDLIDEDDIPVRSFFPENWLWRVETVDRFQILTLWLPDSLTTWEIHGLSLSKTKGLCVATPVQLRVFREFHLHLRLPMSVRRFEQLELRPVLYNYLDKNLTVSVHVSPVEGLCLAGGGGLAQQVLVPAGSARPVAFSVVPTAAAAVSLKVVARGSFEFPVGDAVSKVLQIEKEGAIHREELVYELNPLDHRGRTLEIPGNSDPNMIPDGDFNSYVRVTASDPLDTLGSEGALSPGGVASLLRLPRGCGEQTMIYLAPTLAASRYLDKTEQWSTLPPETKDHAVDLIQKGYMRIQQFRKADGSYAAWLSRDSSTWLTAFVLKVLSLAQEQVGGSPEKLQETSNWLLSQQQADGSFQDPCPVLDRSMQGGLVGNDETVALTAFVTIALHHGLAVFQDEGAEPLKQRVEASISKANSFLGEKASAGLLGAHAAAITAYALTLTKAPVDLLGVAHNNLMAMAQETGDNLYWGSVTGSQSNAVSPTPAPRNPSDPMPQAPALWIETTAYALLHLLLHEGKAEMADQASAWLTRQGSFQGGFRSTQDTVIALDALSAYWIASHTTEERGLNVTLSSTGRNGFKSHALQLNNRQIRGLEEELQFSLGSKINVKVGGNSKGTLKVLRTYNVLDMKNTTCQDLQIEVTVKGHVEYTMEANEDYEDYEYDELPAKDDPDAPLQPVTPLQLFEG
T3 sequence (P0C0L4 1454-1744 limits assumed, form in doubt, chain 3 of 3): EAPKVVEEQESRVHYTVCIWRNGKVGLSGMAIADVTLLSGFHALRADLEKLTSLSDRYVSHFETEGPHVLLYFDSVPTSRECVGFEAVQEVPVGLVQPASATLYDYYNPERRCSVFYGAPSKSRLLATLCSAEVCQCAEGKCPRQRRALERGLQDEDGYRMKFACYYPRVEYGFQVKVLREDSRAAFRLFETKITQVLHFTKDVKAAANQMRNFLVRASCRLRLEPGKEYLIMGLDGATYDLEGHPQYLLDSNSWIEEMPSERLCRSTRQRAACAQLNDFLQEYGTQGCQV

B1: 19I01 (antibody, V domains shown)
VH: EVQLVESGGGLVKPGGSRKLSCAASGFTFSDYGMHWVRQAPEKGLEWVAYISSGSSTIYYADTVKGRFTISRDNAKNTLFLQMTSLRSEDTAMYYCARGVDGYWGQGTTLTVSS
VL: DVVMTQTPLSLPVSLGDQASISCRSSQSLVHSNGNTYLHWYLQKPGQSPKFLIYKVSNRFSGVPDRFSGSGSGTDFTLKISRVEAEDLGVYFCSQTTHVPLTFGAGTKLELK
notes: From mouse immunisation; only variable domains given; also called 19101
One may read the IC50 as the concentration that gives 50% inhibition. For B1, in assay [1], the “% max Block” value worked out at 100% and the IC50 amounted to 8 nM. Also, in assay [2], the “binding normalized to PSGL-1” value is -0.01 and the binding result is recorded as “no binding (tested: 50 nM)”. The “binding normalized to PSGL-1” value in assay [3] was -0.01. In addition, the A450nm in assay [4] was 2.33 A450nm.

B2: 20I15 (antibody, V domains shown)
VH: EVKLVESGGGLVQPGGSLSLSCAASGFTFTDYYMSWVRQPPGKALEWLGFIRNKANGYTTEYSASVKGRFTISRDNSQSILYLQMNALRAEDSATYYCARTYLRRGYFDVWGTGTTVTVSS
VL: DIVLTQSPASLAVSLGQRATISCRASKSVSTSGYSYMHWFQQKPGQPPKLLIYLASNLESGVPARFSGSGSGTDFTLNIHPVEEEDAATYYCQHSRELPLTFGAGTKLELK
notes: From mouse immunisation; only variable domains given; also called 20115
B2: in assay [1], the “% max Block” value was 85% and the IC50 was 30 nM. The “binding normalized to PSGL-1” value in assay [2] stood at 0.06. In assay [3], the “binding normalized to PSGL-1” value stood at 0.09. Further, in assay [4], the A450nm was 2.45 A450nm.

B3: 16L15 (antibody, V domains shown)
VH: DVKLVESGGGLVKLGGSLKLSCAASGFTFSSYYMSWVRQTPEKRLEWVATISNGGGSTYYPDSVKDRFTISRDNAKNTLYLQMSSLNSEDTAVYYCAKPLYYSNPWFAYWGQGTLVTVSA
VL: DVLLTQTPLSLPVSLGDQASISCRSSQSIVHSNGNTYLEWYLQKPGQSPKLLIYKVSNRFSGVPDRFSGSGSGTDFTLKISRVEAEDLGVYYCFQGSHVPRTFGGGTKLEIK
notes: From mouse immunisation; only variable domains given
For the molecule B3, the A450nm in assay [5] came out at 1.22 A450 nm. In addition, in assay [1], the “% max Block” value was determined as 100% and the IC50 came to 6 nM. The binding result in assay [2] was “no binding (tested: 50 nM)”. In addition, the “binding normalized to PSGL-1” value in assay [3] is 0.02. In assay [4], the A450nm turned out to be 2.33 A450nm.

B4: 03D07 (antibody, IgG4, V domains shown)
VH: EVKLLESGGGLVQPGGSLRLSCAASGFTFSSYALSWVRQAPGKGLEWVSAISGSGGNTYYADSVKGRFTISRDNSKNTLYLQMNSLRAEDTAVYYCAKVVGATNYWGQGTLVTVSS
VL: DIVMTQTPLSLPVTLGQPASISCRSSQSLVYSDGHTYLSWFHQRPGQSPRRLIYKVSIRDSGVPDRFSGSGSGTDFTLKISRVEAEDVGVYYCMQRLQIPLTFGGGTKVEIK
Regarding B4, the A450nm worked out at 0.74 A450 nm in assay [5] and 2.25 A450nm in assay [4]. For the same molecule, the “% max Block” value in assay [1] was found to be 100%. In assay [1], the IC50 was determined as 8 nM. Further, the “binding normalized to PSGL-1” value in assay [2] came out at 0.06; in assay [3] it was 0.53.

B5: 18F02 (antibody, V domains shown)
VH: QVQLQQPGAELVKPGASVKLSCKASGYTFTSYWMHWVKQRPGQGLEWIGMIHPNSGRTNYNEKFKSKATLTVDKSSSTAYMQLSSLTSEDSAVYYCARSDYWGQGTTLTVSS
VL: DIVMTQAAFSNPVTLGTSASISCRSSKSLLHSDGITYLYWFLQRPGQSPQLLIYRMSNLASGVPDRFSGSGSGTDFTLRISRVEAEDVGVYYCAQMLEFPRTFGGGTKLEIK
notes: as for B3
In the case of B5, the A450nm in assay [5] amounted to 2 A450 nm; in assay [4], 2.33 A450nm. Besides, the “% max Block” value in assay [1] turned out to be 100%. For the same molecule, the IC50 in assay [1] was determined as 10 nM. In addition, the entries for the “binding normalized to PSGL-1” value in assay [2] and in assay [3] were 0.01 and 0.03, respectively. In addition, in assay [2], the binding result was “no binding (tested: 50 nM)”.

B6: 10F01 (antibody, IgG4, V domains shown)
VH: EVQLVQSGGGLVQPGGSLRLSCAASGFTFSSYAMSWVRQAPGKGLEWVSALRGGDGGTYHADSVKGRFTISGDSSKNTLYLQMNSLRAEDTAVYYCARRMVGAAYAFDIWGQGTMVTVSS
VL: LPVLTQPHSVSESPGKTVTISCTRSSGSIADNFVQWYRQRPGSAPTTVIYEGDQRPSGVPGRFSGSIDSSSNSASLTISGLQTDDEADYYCQSFDSYNRRTHVVFGGGTKLTVL
Molecule B6 registered an A450nm in assay [5] of 1.22 A450 nm. For the same molecule, in assay [1], the “% max Block” value turned out to be 100% and the IC50 turned out to be 8 nM. In assay [2], the “binding normalized to PSGL-1” value was 0.01 and the binding result was “no binding (tested: 50 nM)”. Further, in assay [3], the “binding normalized to PSGL-1” value is 0.06. Besides, in assay [4], the A450nm was found to be 2.1 A450nm.

B7: 19N05 (antibody, V domains shown)
VH: QIQLVQSGPELKKPGETVKISCKASGYTFTTYGMSWVKQAPGKGLKWMGWINTYSGVPTFADDFKGRFAFSLETSASTAYLQINNLKNEDTATFFCARNYYGNHYFDYWGQGTTLTVSS
VL: DVQITQSPSYLAASPGETISINCRASNNINKYLAWYQEKPGKTNKLLIYSGSTLQSGIPSRFSGSGSGTDFTLTISSLEPEDFAMYHCQQHNYYPLTFGAGTKLELK
notes: as for B3
As for B7, in assay [1], the “% max Block” value is 0%.

B8: 5E12 (antibody, V domains shown)
VH: EIQLQQSGAELVRPGASVKLSCTASGFNIKDDYIHWVKQRPEQGLEWIGRIDPANGNTKSAPKFQDKATITADTSSNTAYLHLSSLTSEDTAVYYCSIRFAYWGQGTLVTVSA
VL: DVVMTQTPLSLSVSLGDQASISCRSSQSLVYRNGDTYLHWFLQKPGQSPKLLIYKVSNRFSGVPDRFSGSGSGTDFTLKISRVEAEDLGIYFCSQNTHVPYTFGGGTKLEIK
notes: Mouse hybridoma mAb; only variable domains given
As to B8, in assay [1], the “% max Block” value is 0%. In addition, the “binding normalized to PSGL-1” value in assay [2] and in assay [3] was 0.03 each time. Moreover, in assay [4], the A450nm is 2.05 A450nm.

B9: 2E12 (antibody, V domains shown)
VH: QVQLQQSGAELARPGASVKLSCKASGYTFTNYGLNWVKQRTGQGLEWIGEIYPRSGNTYYNEKFKGKATLTADKSSSTAYMQLSSLTSEDSAVYFCATEGAYWGQGTLVTVSA
VL: DIVMTQTPLTLSVTIGQPASISCKSSQSLLHGNGKTYLNWLLQRPGQSPKLLIYLVSKLESGIPDRFSGSGSGTDFTLEISRVEAEDLGIYYCLQSTHFPRTFGGGTKLEIK
notes: as for B8
Consider B9, for which the “% max Block” value in assay [1] amounted to 0%. Also, the “binding normalized to PSGL-1” value was determined as 1.3 in assay [2] and 0.1 in assay [3]. Besides, in assay [4], the A450nm is 1.99 A450nm.
